According to paper PMC4960544, “Production of full-length soluble Plasmodium falciparum RH5 protein vaccine using a Drosophila melanogaster Schneider 2 stable cell line system” (Scientific Reports, 2016):
Where a chain is given by its changes, count along the chain named.

How the values were obtained:
[1] = molecular target: T1, PfRH5 protein variant version 2.0 (3D7 sequence, four N-linked glycosylation sequons mutated Thr to Ala) (Plasmodium falciparum (3D7 clone), UniProt Q8IFM5 26-526, Thr to Ala in the sequon starting at N38 (position 40 worked out) | Thr to Ala …); experiment: SPR; basigin immobilised on a CM5 chip by amine coupling (850 RU); PfRH5 variant injected at 8-0.0625 uM, 120 s at 30 uL/min, 300 s dissociation; 20 C; 10 mM HEPES pH 7.4, 150 mM NaCl, 3 mM EDTA, 0.005% Tween-20, 2 mg/mL dextran, 1 mg/mL salmon sperm DNA; blank surface subtracted; global 1:1 interaction model; conditions: both partners purified
T1 construct: The construct has an N-terminal BiP insect signal peptide (…); No cleavage site for the His6 tag is described; also called PfRH5 v2.0; v2.0
T1 sequence: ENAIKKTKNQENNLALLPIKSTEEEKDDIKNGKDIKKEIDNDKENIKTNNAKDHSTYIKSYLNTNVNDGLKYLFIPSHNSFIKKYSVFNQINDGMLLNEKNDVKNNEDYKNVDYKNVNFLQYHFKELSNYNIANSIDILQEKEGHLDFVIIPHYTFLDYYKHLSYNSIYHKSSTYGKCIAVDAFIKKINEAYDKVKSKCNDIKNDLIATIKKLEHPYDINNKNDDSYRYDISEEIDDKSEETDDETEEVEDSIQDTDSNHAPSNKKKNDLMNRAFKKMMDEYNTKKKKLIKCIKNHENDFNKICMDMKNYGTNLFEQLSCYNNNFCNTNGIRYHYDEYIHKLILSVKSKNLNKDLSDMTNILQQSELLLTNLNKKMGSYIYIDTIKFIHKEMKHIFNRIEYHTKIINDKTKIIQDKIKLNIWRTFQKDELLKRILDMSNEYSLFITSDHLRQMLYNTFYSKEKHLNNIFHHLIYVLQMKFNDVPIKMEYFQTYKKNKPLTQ

[2] = molecular target: T2, PfRH5 protein variant version 4.0 (3D7 sequence, N38Q and N214Q) (Plasmodium falciparum (3D7 clone), UniProt Q8IFM5 26-526, N38Q | N214Q); experiment: as above; conditions: both partners purified
T2 construct: only two of the putative N-linked glycosylation sites mutated (N38Q and N214Q); The construct has an N-terminal BiP insect signal peptide (…); No cleavage site for the His6 tag is described; No evidence of glycosylation was found for this variant; also called PfRH5 v4.0; v4.0; source: without the Con A step
T2 sequence: T1 sequence with N13Q, A15T, N189Q, A191T, A261T, A274T

B1: recombinant basigin, immunoglobulin domains 1 and 2 of the short isoform (22-205) (domain or fragment)
chain: GAAGTVFTTVEDLGSKILLTCSLNDSATEVTGHRWLKGGVVLKEDALPGQKTEFKVDSDDQWGEYSCVFLPEPMGTANIQLHGPPRVKAVKSSEHINEGETAMLVCKSESVPPVTDWAWYKITDSEDKALMNGSESRFFVSSSQGRSELHIENLNMEADPGQYRCNGTSSKGSDQAIITLRVRSH
notes: additional glycine left at the N-terminus from the TEV cleavage site; basigin (CD147), immunoglobulin domains 1 and 2 of the short isoform, residues 22-205; numbers count on: the short isoform; basigin is spoken of as the red blood cell receptor of the human malaria parasite; also called CD147; PfRH5 receptor; not shown: His6, N-terminal, cleaved
B1: binds [1]; binds [2].
